Data reported in patent publication US20230348603A1 (VERSEAU THERAPEUTICS, published 2023).

Experiments:
[1] = biological target: T1, Human VSIG4-L-His (human, UniProt Q9Y279 20-283); assay: SPR (FJB)
T1 construct: long isoform ECD with His tag; also called hVSIG4-L
T1 sequence: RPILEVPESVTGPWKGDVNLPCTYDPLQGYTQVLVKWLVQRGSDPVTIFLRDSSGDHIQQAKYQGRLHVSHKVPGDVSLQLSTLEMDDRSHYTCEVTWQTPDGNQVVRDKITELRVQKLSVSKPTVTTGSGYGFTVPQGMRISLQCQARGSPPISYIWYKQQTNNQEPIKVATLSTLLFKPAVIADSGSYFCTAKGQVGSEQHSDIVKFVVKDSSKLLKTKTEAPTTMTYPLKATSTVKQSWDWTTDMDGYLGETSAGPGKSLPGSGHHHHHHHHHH

[2] = biological target: T2, Cynomolgus Monkey VSIG4-L-His (cynomolgus monkey); assay: SPR (FJB)
T2 construct: ECD with His tag; also called cyVSIG4-L; cyno VSIG4-L-His
T2 chain: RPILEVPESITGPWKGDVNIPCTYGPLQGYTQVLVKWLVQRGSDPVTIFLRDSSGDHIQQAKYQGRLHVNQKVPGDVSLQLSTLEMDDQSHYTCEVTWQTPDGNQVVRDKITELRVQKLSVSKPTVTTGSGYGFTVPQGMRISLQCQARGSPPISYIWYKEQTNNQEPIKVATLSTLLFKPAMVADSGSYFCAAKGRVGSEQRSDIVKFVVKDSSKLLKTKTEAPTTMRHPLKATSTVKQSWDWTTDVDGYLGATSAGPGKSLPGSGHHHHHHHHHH

[3] = biological target: T3, Mouse VSIG4-His (mouse); assay: ELISA (FJB), muVSIG4-His
T3 construct: ECD with His tag; also called mVSIG4
T3 chain: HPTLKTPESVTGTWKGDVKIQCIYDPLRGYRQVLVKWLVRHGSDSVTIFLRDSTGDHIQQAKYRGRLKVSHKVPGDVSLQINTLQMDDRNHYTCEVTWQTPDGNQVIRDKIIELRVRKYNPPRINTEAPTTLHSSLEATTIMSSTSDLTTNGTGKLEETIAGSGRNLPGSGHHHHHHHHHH

[4] = biological target: T4, Human VSIG4-L-Fc (human); assay: BLI cross-blocking on hVSIG4-L-Fc, competitor 12A12 first
T4 construct: also called hVSIG4-L-Fc; hVSIG4-L

[5] = biological target: T5, Human VSIG4-L-CHO (human VSIG4 long isoform on CHO-K1 cells) (human, UniProt Q9Y279 20-399); assay: flow cytometry (FJB), huVSIG4-L CHO-K1 cells
T5 construct: also called hVSIG4-L (flow cytometry)
T5 sequence: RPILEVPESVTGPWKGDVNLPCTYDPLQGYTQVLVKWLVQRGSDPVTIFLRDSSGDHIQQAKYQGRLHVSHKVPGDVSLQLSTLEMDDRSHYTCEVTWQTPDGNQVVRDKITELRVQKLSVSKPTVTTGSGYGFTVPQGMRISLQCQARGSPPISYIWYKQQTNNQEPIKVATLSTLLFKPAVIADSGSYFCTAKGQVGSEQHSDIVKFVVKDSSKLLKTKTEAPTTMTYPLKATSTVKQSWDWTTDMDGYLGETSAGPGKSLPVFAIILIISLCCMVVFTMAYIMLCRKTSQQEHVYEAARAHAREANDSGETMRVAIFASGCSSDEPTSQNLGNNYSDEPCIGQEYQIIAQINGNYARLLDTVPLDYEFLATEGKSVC

[6] = biological target: T5, Human VSIG4-L-CHO (human VSIG4 long …); assay: flow cytometry (FJB), 200 nM mAb, huVSIG4-L CHO-K1 over parental CHO-K1
[7] = biological target: T4, Human VSIG4-L-Fc; assay: BLI cross-blocking on hVSIG4-L-Fc, competitor 14C05 first
[8] = biological target: T4, Human VSIG4-L-Fc; assay: ligand competition ELISA (FJB), blocked ligand C3b, 200 nM mAb
[9] = biological target: T5, Human VSIG4-L-CHO (human VSIG4 long …); assay: flow cytometry (FJB), 200 nM mAb, huVSIG4-L CHO-K1 cells
[10] = biological target: T4, Human VSIG4-L-Fc; assay: ligand competition ELISA (FJB), blocked ligand C3b
[11] = biological target: T4, Human VSIG4-L-Fc; assay: ligand competition ELISA (FJB), blocked ligand iC3b, 200 nM mAb
[12] = biological target: T4, Human VSIG4-L-Fc; assay: ligand competition ELISA (FJB), blocked ligand iC3b
[13] = biological target: T4, Human VSIG4-L-Fc; assay: BLI cross-blocking on hVSIG4-L-Fc, competitor 16G02 first

Kd [1]: 2.5 nM
Kd [2]: 1.3 nM
binding result [3]: no binding (tested: 50 nM)
binding signal (nm shift) [4]: 0.1 nm
EC50 [5]: 5.2 nM
Binding (200 nM) Fold-Over-Parental [6]: 130 fold
binding signal (nm shift) [7]: 0.11 nm
% Block C3b (200 nM mAb) [8]: 96%
Binding (200 nM) MFI [9]: 38100 MFI
IC50 [10]: 1.1 nM
% Block iC3b (200 nM mAb) [11]: 98%
IC50 [12]: 1 nM
binding signal (nm shift) [13]: 0.11 nm
B1: 16G02 mouse/human chimeric IgG4 (S228P) kappa (antibody, V domains shown)
VH: QVQLQQSGAELMKPGASVKISCKATGYTFSSYWIEWVKQRPGHGLEWIGEILPGSSTTNYNEKFKGKATFTADTSSNTAYMQLSSLTSEDSAVYYCAREDHFITTARYAMDYWGQGTSVTVSS
VL: DIVLTQSPASLAMSVGQKVTMSCKSSQSLLNSSNQKNYLAWYQQKPGQSPKLLLYFASTRESGVPDRFIGSGSGTDFTLTISSVQAEDLADYFCQQHYSNPLTFGAGTKLELKR
